B1: peptide HD2 (from tick evasin EVA4) / CCL18 (biotinylated, synthetic) (parent complex)
chain 1: EEDDYTAYAPLTCYFT
chain 2: AQVGTNKELCCLVYTSWQIPQKFIVDYSETSPQCPKPGVILLTKRGRQICADPNKKWVQKYISDLKLNA

Variants of: B1
chain 1 D4E was tested, and the enrichment was -0.211 log2 (difference from the parental peptide). chain 1 D4H was tested, and the enrichment was -3.06 log2 (difference from the parental peptide). With chain 1 D4Q the enrichment was -1.98 log2 (difference from the parental peptide). For chain 1 D4Y, the enrichment was -1.35 log2 (difference from the parental peptide). chain 1 D4A was tested, and the enrichment was -1.65 log2 (difference from the parental peptide). With chain 1 D4G the enrichment was -2.83 log2 (difference from the parental peptide). With chain 1 D4W the enrichment was -1.54 log2 (difference from the parental peptide). In the case of chain 1 D4F, the enrichment is reported as -2.31 log2 (difference from the parental peptide). With chain 1 D4N the enrichment was -1.99 log2 (difference from the parental peptide). For chain 1 T6D, the enrichment was 2.62 log2 (difference from the parental peptide). In the case of chain 1 T6K, the enrichment is reported as -0.184 log2 (difference from the parental peptide). chain 1 T6Y was tested, and the enrichment was -0.339 log2 (difference from the parental peptide). For chain 1 T6L, the enrichment was -1.51 log2 (difference from the parental peptide). In the case of chain 1 T6N, the enrichment is reported as 1.41 log2 (difference from the parental peptide). In the case of chain 1 T6A, the enrichment is reported as 1.9 log2 (difference from the parental peptide). For chain 1 T6P, the enrichment was -2.2 log2 (difference from the parental peptide). chain 1 T6H was tested, and the enrichment was 0.0995 log2 (difference from the parental peptide). With chain 1 T6G the enrichment was 2.9 log2 (difference from the parental peptide). For chain 1 T6M, the enrichment was 0.172 log2 (difference from the parental peptide). In the case of chain 1 T6R, the enrichment is reported as 0.592 log2 (difference from the parental peptide). In the case of chain 1 F15M, the enrichment is reported as 0.0729 log2 (difference from the parental peptide). With chain 1 F15L the enrichment was 0.128 log2 (difference from the parental peptide). In the case of chain 1 F15T, the enrichment is reported as 0.316 log2 (difference from the parental peptide). In the case of chain 1 F15I, the enrichment is reported as 0.366 log2 (difference from the parental peptide). For chain 1 F15V, the enrichment was 1.03 log2 (difference from the parental peptide). chain 1 F15E was tested, and the enrichment was -2.62 log2 (difference from the parental peptide). With chain 1 F15K the enrichment was -0.831 log2 (difference from the parental peptide). For chain 1 F15D, the enrichment was -4.04 log2 (difference from the parental peptide). In the case of chain 1 F15W, the enrichment is reported as -0.236 log2 (difference from the parental peptide). With chain 1 F15C the enrichment was -5.58 log2 (difference from the parental peptide). With chain 1 F15H the enrichment was 0.242 log2 (difference from the parental peptide). In the case of chain 1 F15R, the enrichment is reported as -0.00139 log2 (difference from the parental peptide). With chain 1 F15N the enrichment was -2.68 log2 (difference from the parental peptide). For chain 1 F15S, the enrichment was -0.989 log2 (difference from the parental peptide). With chain 1 C13T the enrichment was -9.42 log2 (difference from the parental peptide). chain 1 C13L was tested, and the enrichment was -7.42 log2 (difference from the parental peptide). chain 1 C13Q was tested, and the enrichment was -9.57 log2 (difference from the parental peptide). With chain 1 C13F the enrichment was -5.66 log2 (difference from the parental peptide). With chain 1 C13M the enrichment was -4.59 log2 (difference from the parental peptide). In the case of chain 1 C13V, the enrichment is reported as -6.58 log2 (difference from the parental peptide). For chain 1 C13W, the enrichment was -6.26 log2 (difference from the parental peptide). For chain 1 C13P, the enrichment was -7.21 log2 (difference from the parental peptide). With chain 1 Y8C the enrichment was -8.88 log2 (difference from the parental peptide). For chain 1 Y8L, the enrichment was -6.1 log2 (difference from the parental peptide). For chain 1 Y8S, the enrichment was -2.05 log2 (difference from the parental peptide). With chain 1 Y8T the enrichment was -4.68 log2 (difference from the parental peptide). For chain 1 Y8W, the enrichment was 0.189 log2 (difference from the parental peptide). For chain 1 Y8N, the enrichment was -8.33 log2 (difference from the parental peptide). With chain 1 Y8H the enrichment was -6.18 log2 (difference from the parental peptide). For chain 1 Y8I, the enrichment was -7.58 log2 (difference from the parental peptide). chain 1 D3S was tested, and the enrichment was -1.57 log2 (difference from the parental peptide). In the case of chain 1 D3T, the enrichment is reported as -2 log2 (difference from the parental peptide). With chain 1 D3K the enrichment was -3.97 log2 (difference from the parental peptide). chain 1 D3N was tested, and the enrichment was -1.71 log2 (difference from the parental peptide). With chain 1 D3G the enrichment was -0.0296 log2 (difference from the parental peptide). With chain 1 D3Q the enrichment was -2.18 log2 (difference from the parental peptide). For chain 1 D3V, the enrichment was -2.61 log2 (difference from the parental peptide). For chain 1 D3F, the enrichment was -1.57 log2 (difference from the parental peptide). chain 1 E2Q was tested, and the enrichment was -1.4 log2 (difference from the parental peptide). In the case of chain 1 E2W, the enrichment is reported as -1.25 log2 (difference from the parental peptide). For chain 1 E2M, the enrichment was -1.79 log2 (difference from the parental peptide). For chain 1 E2T, the enrichment was -2.6 log2 (difference from the parental peptide). With chain 1 E2H the enrichment was -2.48 log2 (difference from the parental peptide). For chain 1 E2L, the enrichment was -1.93 log2 (difference from the parental peptide). chain 1 E2A was tested, and the enrichment was -1.63 log2 (difference from the parental peptide). In the case of chain 1 E2R, the enrichment is reported as -3.87 log2 (difference from the parental peptide). In the case of chain 1 E2P, the enrichment is reported as -2.55 log2 (difference from the parental peptide). chain 1 E1Q was tested, and the enrichment was -1.1 log2 (difference from the parental peptide). For chain 1 E1N, the enrichment was -0.496 log2 (difference from the parental peptide). chain 1 E1G was tested, and the enrichment was -0.506 log2 (difference from the parental peptide). chain 1 E1H was tested, and the enrichment was -1.83 log2 (difference from the parental peptide). For chain 1 E1M, the enrichment was -0.0267 log2 (difference from the parental peptide). With chain 1 E1F the enrichment was -2.72 log2 (difference from the parental peptide). In the case of chain 1 E1S, the enrichment is reported as -0.81 log2 (difference from the parental peptide). With chain 1 E1W the enrichment was -2.19 log2 (difference from the parental peptide). chain 1 E1D was tested, and the enrichment was 1.97 log2 (difference from the parental peptide). In the case of chain 1 E1K, the enrichment is reported as -3.68 log2 (difference from the parental peptide). In the case of chain 1 Y14V, the enrichment is reported as -1.51 log2 (difference from the parental peptide). chain 1 Y14D was tested, and the enrichment was -5.4 log2 (difference from the parental peptide). With chain 1 Y14K the enrichment was -6.36 log2 (difference from the parental peptide). With chain 1 Y14N the enrichment was -4.78 log2 (difference from the parental peptide). In the case of chain 1 Y14C, the enrichment is reported as -8.51 log2 (difference from the parental peptide). For chain 1 Y14I, the enrichment was -0.627 log2 (difference from the parental peptide). For chain 1 Y14A, the enrichment was -5.59 log2 (difference from the parental peptide). For chain 1 Y14T, the enrichment was -1.1 log2 (difference from the parental peptide). With chain 1 Y14Q the enrichment was -3.29 log2 (difference from the parental peptide). In the case of chain 1 A7P, the enrichment is reported as 0.82 log2 (difference from the parental peptide). chain 1 A7E was tested, and the enrichment was 2.03 log2 (difference from the parental peptide). In the case of chain 1 A7D, the enrichment is reported as 1.19 log2 (difference from the parental peptide). For chain 1 A7F, the enrichment was -2.38 log2 (difference from the parental peptide). chain 1 A7K was tested, and the enrichment was 1.7 log2 (difference from the parental peptide). For chain 1 A7V, the enrichment was -1.12 log2 (difference from the parental peptide). In the case of chain 1 A7H, the enrichment is reported as -0.736 log2 (difference from the parental peptide). For chain 1 A7R, the enrichment was 1.21 log2 (difference from the parental peptide). For chain 1 A7S, the enrichment was 0.379 log2 (difference from the parental peptide). For chain 1 A7L, the enrichment was 0.189 log2 (difference from the parental peptide). chain 1 A7G was tested, and the enrichment was -0.215 log2 (difference from the parental peptide). For chain 1 A9P, the enrichment was -6 log2 (difference from the parental peptide). In the case of chain 1 A9R, the enrichment is reported as -1.3 log2 (difference from the parental peptide). chain 1 A9V was tested, and the enrichment was -8.05 log2 (difference from the parental peptide). In the case of chain 1 A9I, the enrichment is reported as -10.2 log2 (difference from the parental peptide). chain 1 A9Y was tested, and the enrichment was -7.05 log2 (difference from the parental peptide). chain 1 A9H was tested, and the enrichment was -4.5 log2 (difference from the parental peptide). For chain 1 A9W, the enrichment was -3.66 log2 (difference from the parental peptide). In the case of chain 1 A9L, the enrichment is reported as -7.81 log2 (difference from the parental peptide). For chain 1 A9T, the enrichment was -3.35 log2 (difference from the parental peptide). For chain 1 A9C, the enrichment was -10.3 log2 (difference from the parental peptide). chain 1 A9S was tested, and the enrichment was -1.48 log2 (difference from the parental peptide). For chain 1 A9K, the enrichment was -2.18 log2 (difference from the parental peptide). With chain 1 A9G the enrichment was -3.53 log2 (difference from the parental peptide). For chain 1 A9E, the enrichment was -0.109 log2 (difference from the parental peptide). With chain 1 Y5H the enrichment was -4.35 log2 (difference from the parental peptide). With chain 1 Y5N the enrichment was -4 log2 (difference from the parental peptide). chain 1 Y5W was tested, and the enrichment was 1.32 log2 (difference from the parental peptide). chain 1 Y5F was tested, and the enrichment was -0.587 log2 (difference from the parental peptide). With chain 1 Y5T the enrichment was -3.47 log2 (difference from the parental peptide). In the case of chain 1 Y5P, the enrichment is reported as -4.12 log2 (difference from the parental peptide). With chain 1 Y5R the enrichment was -6.25 log2 (difference from the parental peptide). With chain 1 Y5E the enrichment was -1.36 log2 (difference from the parental peptide). With chain 1 Y5A the enrichment was -4.1 log2 (difference from the parental peptide). For chain 1 Y5M, the enrichment was -0.412 log2 (difference from the parental peptide). In the case of chain 1 P10Q, the enrichment is reported as -5.59 log2 (difference from the parental peptide). chain 1 P10G was tested, and the enrichment was -8.83 log2 (difference from the parental peptide). In the case of chain 1 P10W, the enrichment is reported as -5.72 log2 (difference from the parental peptide). With chain 1 P10Y the enrichment was -6.76 log2 (difference from the parental peptide). In the case of chain 1 P10N, the enrichment is reported as -8.22 log2 (difference from the parental peptide). chain 1 P10A was tested, and the enrichment was -7.91 log2 (difference from the parental peptide). With chain 1 L11D the enrichment was -8.28 log2 (difference from the parental peptide). chain 1 L11E was tested, and the enrichment was -3.32 log2 (difference from the parental peptide). With chain 1 L11A the enrichment was 0.458 log2 (difference from the parental peptide). With chain 1 L11M the enrichment was 2.39 log2 (difference from the parental peptide). With chain 1 L11P the enrichment was -3.17 log2 (difference from the parental peptide). With chain 1 L11G the enrichment was -7.45 log2 (difference from the parental peptide). chain 1 T16M was tested, and the enrichment was 0.26 log2 (difference from the parental peptide). For chain 1 T16W, the enrichment was -0.639 log2 (difference from the parental peptide). chain 1 T16P was tested, and the enrichment was 1.74 log2 (difference from the parental peptide). In the case of chain 1 T16E, the enrichment is reported as 1.13 log2 (difference from the parental peptide). chain 1 T16Y was tested, and the enrichment was -0.525 log2 (difference from the parental peptide). chain 1 T16S was tested, and the enrichment was 0.936 log2 (difference from the parental peptide). chain 1 T16R was tested, and the enrichment was -1.37 log2 (difference from the parental peptide). With chain 1 T16V the enrichment was 0.0426 log2 (difference from the parental peptide). With chain 1 T12P the enrichment was 1.92 log2 (difference from the parental peptide). With chain 1 T12C the enrichment was -7.25 log2 (difference from the parental peptide). For chain 1 T12H, the enrichment was -0.953 log2 (difference from the parental peptide). For chain 1 T12R, the enrichment was -2.9 log2 (difference from the parental peptide). In the case of chain 1 T12M, the enrichment is reported as 0.511 log2 (difference from the parental peptide). chain 1 T12K was tested, and the enrichment was -4.78 log2 (difference from the parental peptide). In the case of chain 1 T12D, the enrichment is reported as -4.6 log2 (difference from the parental peptide). With chain 1 T12Y the enrichment was 0.868 log2 (difference from the parental peptide). chain 1 T12L was tested, and the enrichment was 0.858 log2 (difference from the parental peptide).

Reference: article PMC11969024 (2025)
